Like-named read-outs stand apart in the source and are kept apart here. Values belong to the molecule of their own block, whether it stands above or below them.
B2: Aurora-A^CAKD (Aurora-A kinase domain, aa 122–403 C290A, C393A), unphosphorylated (domain or fragment, human, UniProt O14965 122-403, looked up)
chain: ESKKRQWALEDFEIGRPLGKGKFGNVYLAREKQSKFILALKVLFKAQLEKAGVEHQLRREVEIQSHLRHPNILRLYGYFHDATRVYLILEYAPLGTVYRELQKLSKFDEQRTATYITELANALSYCHSKRVIHRDIKPENLLLGSAGELKIADFGWSVHAPSSRRTTLAGTLDYLPPEMIEGRMHDEKVDLWSLGVLCYEFLVGKPPFEANTYQETYKRISRVEFTFPDFVTEGARDLISRLLKHNPSQRPMLREVLEHPWITANSSKPSNAQNKESASKQS
notes: Aurora-A kinase domain, human, residues 122-403, variant lacking surface cysteines; also called Aurora-A 122–403 C290A C393A; unphosphorylated Aurora-A^CAKD; source: E. coli RIL, co-expressed with lambda phosphatase, purified (HisTrap, TEV cleavage, SEC); not shown: His6, N-terminal, cleaved
B3: human CEP192 468–533 Y487A/F490A (domain or fragment, UniProt Q8TEP8 468-533, looked up)
chain: PQSVVYQNEEGRWVTDLAYATSANSKQNLNVSLSDEMNEDFRSGSEAFDLIAQDEEEFNKEHQFIQ
notes: source: E. coli B834 RIL, purified (HisTrap, TEV cleavage, SEC); not shown: His6, N-terminal, cleaved; SUMO, N-terminal, cleaved

Columns and labels:
[1] = target: T1, phosphorylated Aurora-A CAKD (Homo sapiens, UniProt O14965, C290A/C393A); test: ADP-Glo kinase assay, kemptide substrate; type: biochemical
T1 construct: 10 nM Aurora-A 122–403 C290A C393A phosphorylated protein; His (N, cleaved yes); made in house; host or cells: E. coli B834 (no lambda phosphatase)
T1 sequence (O14965 122-403 C290A/C393A): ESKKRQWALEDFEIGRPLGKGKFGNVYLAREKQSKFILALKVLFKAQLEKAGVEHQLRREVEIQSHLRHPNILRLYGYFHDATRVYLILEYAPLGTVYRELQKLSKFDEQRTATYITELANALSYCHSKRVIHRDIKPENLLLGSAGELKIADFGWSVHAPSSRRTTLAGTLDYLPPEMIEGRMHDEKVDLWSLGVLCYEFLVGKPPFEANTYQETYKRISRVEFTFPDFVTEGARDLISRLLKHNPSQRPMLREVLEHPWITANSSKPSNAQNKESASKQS
Description: Reactions were initiated by the addition of 10 μM ATP and 100 μM kemptide as substrate (Cambridge Bioscience Ltd). The reactions were incubated at room temperature for 60 min before 5 μl was transferred into 5 ul of ADP-Glo Reagent (Promega) in a 384-well low volume low binding plate (Greiner Bio-one). After a further 40 min at room temperature, 10 μl of kinase detection reagent was added to each well, and the reaction was allowed to incubate for an additional 30 min. Luminescence was measured on a HIDEX Sense plate reader (HIDEX) using a 1 s integration time. Control data was subtracted from the luminescence and three repeats were averaged before being fitted to a sigmoidal plot using Origin (OriginLab), where IC50 and EC50 values were calculated.

[2] = target: Aurora-A; settings: from ITC; ref (Burgess et al, [2015]; McIntyre et al, [2017]; Zorba et al, [2014]); cited from earlier work
Description: This is a higher affinity than observed in a previous study that used CEP192 proteins fused to MBP, a large protein tag that might have affected the interaction (Park et al, [2023]). For context, the affinity of Aurora-A for its other key mitotic partners are: TPX2_1-43 (Kd 0.3–2 μM from ITC) and TACC ...

[3] = target: T2, human CEP192 468–533 (human, UniProt Q8TEP8 468-533); test: ITC; 250 μM Aurora-A in the syringe, 25 μM CEP192 construct in the cell; 25 °C; 20 mM tris pH 7.5, 200 mM NaCl, 10% glycerol, 5 mM MgCl2; settings: both partners purified
T2 construct: also called CEP192_(506-527_F); source: E. coli B834 RIL, purified (HisTrap, TEV cleavage, SEC); for crystallisation co-expressed with Aurora-A^M7KD and co-purified; not shown: His6, N-terminal, cleaved; SUMO, N-terminal, cleaved
T2 sequence (looked up): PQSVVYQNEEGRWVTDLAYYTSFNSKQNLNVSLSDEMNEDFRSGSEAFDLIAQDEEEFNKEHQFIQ

[4] = target: B3; test: as above; settings: both partners purified
[5] = target: T3, Aurora-A^CAKD (Aurora-A kinase domain, aa 122–403 C290A, C393A), unphosphorylated (human, UniProt O14965 122-403, C290A | C393A); test: FP; competition with FAM-TPX2 7-43
T3 sequence: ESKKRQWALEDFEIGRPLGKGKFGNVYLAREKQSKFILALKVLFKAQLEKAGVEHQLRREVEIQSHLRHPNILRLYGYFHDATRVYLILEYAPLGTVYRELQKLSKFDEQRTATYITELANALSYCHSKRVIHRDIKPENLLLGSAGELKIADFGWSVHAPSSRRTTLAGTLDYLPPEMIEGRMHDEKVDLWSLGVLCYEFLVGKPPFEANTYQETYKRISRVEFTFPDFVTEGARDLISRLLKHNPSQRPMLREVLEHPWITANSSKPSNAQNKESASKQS

[6] = target: B2; test: ITC; 250 μM Aurora-A in the syringe, 25 μM CEP192 construct in the cell; 25 °C; 20 mM tris pH 7.5, 200 mM NaCl, 10% glycerol, 5 mM MgCl2; settings: both partners purified

- EC50 ([1]; 10 nM phosphorylated Aurora-A CAKD, 10 μM ATP, 100 μM kemptide, 60 min, n = 3, read-out: ADP-Glo EC50 (stimulation of Aurora-A activity)): 6.8 ± 0.5 nM
- EC50 ([1]; ADP-Glo, 10 nM Aurora-A, first manuscript version, quoted by referee, read-out: concentration of 50 % max activation): 1 nM
B1: TPX2 1-43: Aurora-A activating domain of TPX2 (aa 1–43) (protein)
chain: MSQVKSSYSYDAPSDFINFSSLDDEGDTQNIDSWFEEKANLENKLLGKNGTGGLFQGKTPLRKANLQQAIVTPLKPVDNTYYKEAEKENLVEQSIPSNACSSLEVEAAISRKTPAQPQRRSLRLSAQKDLEQKEKHHVKMKAKRCATPVIIDEILPSKKMKVSNNKKKPEEEGSAHQDTAEKNASSPEKAKGRHTVPCMPPAKQKFLKSTEEQELEKSMKMQQEVVEMRKKNEEFKKLALAGIGQPVKKSVSQVTKSVDFHFRTDERIKQHPKNQEEYKEVNFTSELRKHPSSPARVTKGCTIVKPFNLSQGKKRTFDETVSTYVPLAQQVEDFHKRTPNRYHLRSKKDDINLLPSKSSVTKICRDPQTPVLQTKHRARAVTCKSTAELEAEELEKLQQYKFKARELDPRILEGGPILPKKPPVKPPTEPIGFDLEIEKRIQERESKKKTEDEHFEFHSRPCPTKILEDVVGVPEKKVLPITVPKSPAFALKNRIRMPTKEDEEEDEPVVIKAQPVPHYGVPFKPQIPEARTVEICPFSFDSRDKERQLQKEKKIKELQKGEVPKFKALPLPHFDTINLPEKKVKNVTQIEPFCLETDRRGALKAQTWKHQLEEELRQQKEAACFKARPNTVISQEPFVPKKEKKSVAEGLSGSLVQEPFQLATEKRAKERQELEKRMAEVEAQKAQQLEEARLQEEEQKKEELARLRRELVHKANPIRKYQGLEIKSSDQPLTVPVSPKFSTRFHC
- Kd [2]: 300 to 2000 nM

Molecule: B2
- stoichiometry N [3]: 0.85
- stoichiometry N [4]: 0.84

Molecule: B3
- IC50 [5]: 14100 nM
- Kd [6]: 2000 nM
